Reference: US20070286806A1, “Methods and Compositions for Modulating a Steroid Receptor” (Mount Sinai Hospital, priority 2004, published 2007)

Target: T1, glucocorticoid receptor (Mesocricetus auratus, UniProt A0A1U8BQ22)
T1 construct: endogenous in cells; host or cells: SHM (Syrian hamster myocyte) cells
T1 sequence (A0A1U8BQ22 1-774): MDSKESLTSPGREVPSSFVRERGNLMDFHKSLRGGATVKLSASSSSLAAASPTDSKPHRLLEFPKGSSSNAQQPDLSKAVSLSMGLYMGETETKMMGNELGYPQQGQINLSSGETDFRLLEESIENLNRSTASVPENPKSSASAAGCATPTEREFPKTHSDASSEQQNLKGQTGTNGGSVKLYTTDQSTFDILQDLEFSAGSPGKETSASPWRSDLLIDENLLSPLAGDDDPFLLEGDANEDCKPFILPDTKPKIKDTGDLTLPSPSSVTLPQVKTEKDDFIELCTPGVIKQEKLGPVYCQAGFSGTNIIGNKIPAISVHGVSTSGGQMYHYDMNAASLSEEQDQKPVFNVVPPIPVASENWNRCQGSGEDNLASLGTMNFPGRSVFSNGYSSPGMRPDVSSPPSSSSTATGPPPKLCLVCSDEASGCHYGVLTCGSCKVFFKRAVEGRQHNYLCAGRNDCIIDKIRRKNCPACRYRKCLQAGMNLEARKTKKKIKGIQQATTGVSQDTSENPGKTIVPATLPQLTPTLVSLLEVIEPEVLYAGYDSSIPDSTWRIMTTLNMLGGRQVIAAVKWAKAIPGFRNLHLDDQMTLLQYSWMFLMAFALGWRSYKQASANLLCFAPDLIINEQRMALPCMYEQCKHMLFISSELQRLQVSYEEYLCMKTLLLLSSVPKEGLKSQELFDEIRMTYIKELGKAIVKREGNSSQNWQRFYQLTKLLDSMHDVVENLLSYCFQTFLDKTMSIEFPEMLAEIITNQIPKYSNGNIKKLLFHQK
Test: Glucocorticoid receptor transactivation in SHM cells, MMTV-Luc reporter
Assay type: cell-based
Conditions: 1 nM Dex
Protocol: Hamster smooth muscle cells (SHM) were transiently transfected with PSF-A expression vector together with a MMTV-Luc reporter vector. Cells were treated with either vehicle or 1 nM Dex for at least 24 hours. Luciferase activities were measured and normalized by β-galactosidase acitvity. Data shown in FIG. 13 are the mean of three separate experiments performed in triplicate ±S.E. Note: the empty vector pcDNA3 was added to the DNA mixture to ensure that the amounts of CMV promoter in all the transfection assays are equal.

B1: polypyrimidine tract binding protein-associated splicing factor (protein)
chain: MSRDRFRSRGGGGGGFHRRGGGGGRGGLHDFRSPPPGMGLNQNRGPMGPGPGQSGPKPPIPPPPPHQQQQQPPPQQPPPQQPPPHQPPPHPQPHQQQQPPPPPQDSSKPVVAQGPGPAPGVGSAPPASSSAPPATPPTSGAPPGSGPGPTPTPPPAVTSAPPGAPPPTPPSSGVPTTPPQAGGPPPPPAAVPGPGPGPKQGPGPGGPKGGKMPGGPKPGGGPGLSTPGGHPKPPHRGGGEPRGGRQHHPPYHQQHHQGPPPGGPGGRSEEKISDSEGFKANLSLLRRPGEKTYTQRCRLFVGNLPADITEDEFKRLFAKYGEPGEVFINKGKGFGFIKLESRALAEIAKAELDDTPMRGRQLRVRFATHAAALSVRNLSPYVSNELLEEAFSQFGPIERAVVIVDDRGRSTGKGIVEFASKPAARKAFERCSEGVFLLTTTPRPVIVEPLEQLDDEDGLPEKLAQKNPMYQKERETPPRFAQHGTFEYEYSQRWKSLDEMEKQQREQVEKNMKDAKDKLESEMEDAYHEHQANLLRQDLMRRQEELRRMEELHNQEMQKRKEMQLRQEEERRRREEEMMIRQREMEEQMRRQREESYSRMGYMDPRERDMRMGGGGAMNMGDPYGSGGQKFPPLGGGGGIGYEANPGVPPATMSGSMMGSDMRTERFGQGGAGPVGGQGPRGMGPGTPAGYGRGREEYEGPNKKPRF
notes: expressed from transfected His-PSF vector or in vitro translated
glucocorticoid receptor activation of the MMTV promoter: blocks its activation of the MMTV promoter
